Laboratory results published in IntAct's records for PubMed 23746845.

B1: Telomere length regulator protein RIF1 (Saccharomyces cerevisiae), P29539 (parent)
chain: MSKDFSDKKKHTIDRIDQHILRRSQHDNYSNGSSPWMKTNLPPPSPQAHMHIQSDLSPTPKRRKLASSSDCENKQFDLSAINKNLYPEDTGSRLMQSLPELSASNSDNVSPVTKSVAFSDRIESSPIYRIPGSSPKPSPSSKPGKSILRNRLPSVRTVSDLSYNKLQYTQHKLHNGNIFTSPYKETRVNPRALEYWVSGEIHGLVDNESVSEFKEIIEGGLGILRQESEDYVARRFEVYATFNNIIPILTTKNVNEVDQKFNILIVNIESIIEICIPHLQIAQDTLLSSSEKKNPFVIRLYVQIVRFFSAIMSNFKIVKWLTKRPDLVNKLKVIYRWTTGALRNENSNKIIITAQVSFLRDEKFGTFFLSNEEIKPIISTFTEIMEINSHNLIYEKLLLIRGFLSKYPKLMIETVTSWLPGEVLPRIIIGDEIYSMKILITSIVVLLELLKKCLDFVDEHERIYQCIMLSPVCETIPEKFLSKLPLNSYDSANLDKVTIGHLLTQQIKNYIVVKNDNKIAMDLWLSMTGLLYDSGKRVYDLTSESNKVWFDLNNLCFINNHPKTRLMSIKVWRIITYCICTKISQKNQEGNKSLLSLLRTPFQMTLPYVNDPSAREGIIYHLLGVVYTAFTSNKNLSTDMFELFWDHLITPIYEDYVFKYDSIHLQNVLFTVLHLLIGGKNADVALERKYKKHIHPMSVIASEGVKLKDISSLPPQIIKREYDKIMKVVFQAVEVAISNVNLAHDLILTSLKHLPEDRKDQTHLESFSSLILKVTQNNKDTPIFRDFFGAVTSSFVYTFLDLFLRKNDSSLVNFNIQISKVGISQGNMTLDLLKDVIRKARNETSEFLIIEKFLELDDKKTEVYAQNWVGSTLLPPNISFREFQSLANIVNKVPNENSIENFLDLCLKLSFPVNLFTLLHVSMWSNNNFIYFIQSYVSKNENKLNVDLITLLKTSLPGNPELFSGLLPFLRRNKFMDILEYCIHSNPNLLNSIPDLNSDLLLKLLPRSRASYFAANIKLFKCSEQLTLVRWLLKGQQLEQLNQNFSEIENVLQNASDSELEKSEIIRELLHLAMANPIEPLFSGLLNFCIKNNMADHLDEFCGNMTSEVLFKISPELLLKLLTYKEKPNGKLLAAVIEKIENGDDDYILELLEKIIIQKEIQILEKLKEPLLVFFLNPVSSNMQKHKKSTNMLRELVLLYLTKPLSRSAAKKFFSMLISILPPNPNYQTIDMVNLLIDLIKSHNRKFKDKRTYNATLKTIGKWIQESGVVHQGDSSKEIEAIPDTKSMYIPCEGSENKLSNLQRKVDSQDIQVPATQGMKEPPSSIQISSQISAKDSDSISLKNTAIMNSSQQESHANRSRSIDDETLEEVDNESIREIDQQMKSTQLDKNVANHSNICSTKSDEVDVTELHESIDTQSSEVNAYQPIEVLTSELKAVTNRSIKTNPDHNVVNSDNPLKRPSKETPTSENKRSKGHETMVDVLVSEEQAVSPSSDVICTNIKSIANEESSLALRNSIKVETNCNENSLNVTLDLDQQTITKEDGKGQVEHVQRQENQESMNKINSKSFTQDNIAQYKSVKKARPNNEGENNDYACNVEQASPVRNEVPGDGIQIPSGTILLNSSKQTEKSKVDDLRSDEDEHGTVAQEKHQVGAINSRNKNNDRMDSTPIQGTEEESREVVMTEEGINVRLEDSGTCELNKNLKGPLKGDKDANINDDFVPVEENVRDEGFLKSMEHAVSKETGLEEQPEVADISVLPEIRIPIFNSLKMQGSKSQIKEKLKKRLQRNELMPPDSPPRMTENTNINAQNGLDTVPKTIGGKEKHHEIQLGQAHTEADGEPLLGGDGNEDATSREATPSLKVHFFSKKSRRLVARLRGFTPGDLNGISVEERRNLRIELLDFMMRLEYYSNRDNDMN
partner: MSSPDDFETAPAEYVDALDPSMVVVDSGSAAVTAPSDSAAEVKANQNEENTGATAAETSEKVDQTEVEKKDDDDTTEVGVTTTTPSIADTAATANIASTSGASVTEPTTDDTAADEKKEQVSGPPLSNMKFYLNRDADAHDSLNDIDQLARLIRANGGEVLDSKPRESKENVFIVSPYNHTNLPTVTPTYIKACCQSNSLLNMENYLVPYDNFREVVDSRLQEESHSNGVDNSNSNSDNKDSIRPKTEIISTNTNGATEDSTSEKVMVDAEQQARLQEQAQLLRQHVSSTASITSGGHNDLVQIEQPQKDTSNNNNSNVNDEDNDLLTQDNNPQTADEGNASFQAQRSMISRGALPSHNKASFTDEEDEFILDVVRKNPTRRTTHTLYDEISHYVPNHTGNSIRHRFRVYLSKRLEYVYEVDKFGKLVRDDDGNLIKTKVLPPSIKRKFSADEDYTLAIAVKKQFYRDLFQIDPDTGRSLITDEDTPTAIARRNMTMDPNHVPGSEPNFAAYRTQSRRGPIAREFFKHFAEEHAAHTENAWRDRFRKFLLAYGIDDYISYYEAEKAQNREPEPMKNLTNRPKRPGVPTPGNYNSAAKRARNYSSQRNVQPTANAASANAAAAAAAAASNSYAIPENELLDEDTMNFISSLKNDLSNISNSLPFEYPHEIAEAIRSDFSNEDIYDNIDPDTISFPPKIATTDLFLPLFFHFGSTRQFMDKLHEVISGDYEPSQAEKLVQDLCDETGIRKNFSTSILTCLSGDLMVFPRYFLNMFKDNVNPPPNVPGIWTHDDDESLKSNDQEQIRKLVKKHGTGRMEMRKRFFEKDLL
B2: DNA-binding protein RAP1 (Saccharomyces cerevisiae), P11938 (parent)
chain: B1 partner

Variants of: B1
Conditions: with rap1_yeast RAP1, P11938

**Q.** How did the “effect of a mutation on the interaction” value turn out when L1905R was run?
**A.** The value was “decreasing interaction strength”.

Variants of: B1
Conditions: with rap1_yeast RAP1, P11938
Remark: another data set of the same source

**Q.** L1905R was tested. Which “effect of a mutation on the interaction” value did it give?
**A.** Its value is “disrupting interaction strength”.

**Q.** Which “effect of a mutation on the interaction” value does the source give for I1760R here?
**A.** The value was “disrupting interaction strength”.

**Q.** How did the “effect of a mutation on the interaction” value turn out when I1764R was run?
**A.** Its value is “disrupting interaction strength”.

**Q.** R1895E was tested. Which “effect of a mutation on the interaction” value did it give?
**A.** The value was “decreasing interaction strength”.

**Q.** How did the “effect of a mutation on the interaction” value turn out when I1762R was run?
**A.** The value was “disrupting interaction strength”.

Variants of: B2
Conditions: with rif1_yeast RIF1, P29539

**Q.** With A733R as the variant, how does the “effect of a mutation on the interaction” value read?
**A.** The value was “disrupting interaction strength”.

**Q.** With G760R as the variant, how does the “effect of a mutation on the interaction” value read?
**A.** Its value is “disrupting interaction strength”.
